Measured values published in publication doi:10.1101/2021.05.24.445390 (bioRxiv, 2021).

Target: Tetanus neurotoxin (TeNT) (Clostridium tetani strain Y-IV-3 (WS …, UniProt P04958))
Test: SPR

Sequence of Tetanus neurotoxin (TeNT) (Clostridium tetani strain Y-IV-3 (P04958 1-457, chain 1 of 2): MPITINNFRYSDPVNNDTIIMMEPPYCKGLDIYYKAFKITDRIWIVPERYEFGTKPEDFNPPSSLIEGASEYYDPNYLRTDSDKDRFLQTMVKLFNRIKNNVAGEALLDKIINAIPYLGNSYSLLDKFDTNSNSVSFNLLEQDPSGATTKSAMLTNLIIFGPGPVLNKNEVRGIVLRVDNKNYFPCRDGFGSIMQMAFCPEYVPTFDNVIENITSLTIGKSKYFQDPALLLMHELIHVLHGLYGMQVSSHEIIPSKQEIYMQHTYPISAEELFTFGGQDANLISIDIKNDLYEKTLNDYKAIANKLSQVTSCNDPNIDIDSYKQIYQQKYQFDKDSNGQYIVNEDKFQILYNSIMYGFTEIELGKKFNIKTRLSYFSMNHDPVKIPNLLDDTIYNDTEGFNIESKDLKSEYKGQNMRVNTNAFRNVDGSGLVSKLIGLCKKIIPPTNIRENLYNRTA
Sequence of Tetanus neurotoxin (TeNT) (Clostridium tetani strain Y-IV-3 (P04958 458-1315, chain 2 of 2): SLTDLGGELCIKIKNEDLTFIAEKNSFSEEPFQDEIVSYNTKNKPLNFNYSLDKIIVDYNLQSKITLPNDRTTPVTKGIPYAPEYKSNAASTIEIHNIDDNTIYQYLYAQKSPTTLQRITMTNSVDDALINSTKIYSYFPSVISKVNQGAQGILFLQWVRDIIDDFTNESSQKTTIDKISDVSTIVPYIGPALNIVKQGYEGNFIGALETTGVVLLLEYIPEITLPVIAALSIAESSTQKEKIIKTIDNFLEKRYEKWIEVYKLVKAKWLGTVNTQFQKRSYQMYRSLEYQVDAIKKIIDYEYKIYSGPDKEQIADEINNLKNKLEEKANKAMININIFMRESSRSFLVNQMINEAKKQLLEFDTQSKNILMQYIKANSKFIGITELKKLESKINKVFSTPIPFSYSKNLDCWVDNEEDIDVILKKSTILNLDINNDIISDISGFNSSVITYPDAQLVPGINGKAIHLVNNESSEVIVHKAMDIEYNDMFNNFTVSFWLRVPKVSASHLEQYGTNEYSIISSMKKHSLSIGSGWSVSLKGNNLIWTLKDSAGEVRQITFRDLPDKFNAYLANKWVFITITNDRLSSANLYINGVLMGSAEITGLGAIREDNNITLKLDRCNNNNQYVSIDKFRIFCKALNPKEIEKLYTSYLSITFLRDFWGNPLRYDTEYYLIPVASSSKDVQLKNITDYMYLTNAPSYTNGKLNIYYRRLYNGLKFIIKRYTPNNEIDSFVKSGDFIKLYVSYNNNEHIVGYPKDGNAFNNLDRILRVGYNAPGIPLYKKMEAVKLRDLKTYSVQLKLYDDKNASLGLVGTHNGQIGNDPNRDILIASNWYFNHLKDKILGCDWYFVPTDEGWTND

B1: TT104-Fab (Fab, V domains shown)
VH: QLQLQESGPGLVRPSETLSLTCSVSDDSMGSSTYYWAWIRQPPGKGLEWIGNVYYNGVTYYNSSLESRLTLSIDPSKNQFSLILSSVTAADTAVYYCARQADNWFDPWGQGTLVTVSS
VL: IMMTQSPATLSVSPGERATLSCRASQSVGSDLAWYQQKPGQAPRLLIYGASYRATGIPARFSGGGSGTEFTLTISSMQSEDFAVYYCQQYYNWPPYTFGQGTKVEIK
For B1, the Kd was 0.0067 nM.

B2: TT110-Fab (Fab, V domains shown)
VH: QVQLMQSGAEVQKPGASVKVSCQASGFTLNNYYIHWLRQAPGQGFEWMGIFNPSSGTRTYAQKFQGRISMTADASTTTLYMELSGLTSEDAGVYFCARIGGSTYGRLMTYYFDHWGQGTVVAVSS
VL: VLTQGPVTLSVSPGGRGTLSCRASRSISTTLAWYQQKPGQAPRLLIYGASTRATGIPARFTGSGSGTEFTLTISSLQSEDFAVYYCQQYNDWPVTFGQGTQVEVK
B2 gave a Kd of 3 nM.
